{
  "source": "patent US20120022129",
  "proteins": {"B1": {"name": "protein kinase CK2 catalytic subunit CK2α (protein)", "chain": "MSGPVPSRARVYTDVNTHRPREYWDYESHVVEWGNQDDYQLVRKLGRGKYSEVFEAINITNNEKVVVKILKPVKKKKIKREIKILENLRGGPNIITLADIVKDPVSRTPALVFEHVNNTDFKQLYQTLTDYDIRFYMYEILKALDYCHSMGIMHRDVKPHNVMIDHEHRKLRLIDWGLAEFYHPGQEYNVRVASRYFKGPELLVDYQMYDYSLDMWSLGCMLASMIFRKEPFFHGHDNYDQLVRIAKVLGTEDLYDYIDKYNIELDPRFNDILGRHSRKRWERFVHSENQHLVSPEALDFLDKLLRYDHQSRLTAREAMEHPYFYTVVKDQARMGSSSMPGGSTPVSSANMMSGISSVPTPSPLGPLAGSPVIAAANPLGMPVPAAAGAQQ"}},
  "target": "flag-tagged WT HDAC2 (1-488)",
  "sequence (chain, as listed by the source)": "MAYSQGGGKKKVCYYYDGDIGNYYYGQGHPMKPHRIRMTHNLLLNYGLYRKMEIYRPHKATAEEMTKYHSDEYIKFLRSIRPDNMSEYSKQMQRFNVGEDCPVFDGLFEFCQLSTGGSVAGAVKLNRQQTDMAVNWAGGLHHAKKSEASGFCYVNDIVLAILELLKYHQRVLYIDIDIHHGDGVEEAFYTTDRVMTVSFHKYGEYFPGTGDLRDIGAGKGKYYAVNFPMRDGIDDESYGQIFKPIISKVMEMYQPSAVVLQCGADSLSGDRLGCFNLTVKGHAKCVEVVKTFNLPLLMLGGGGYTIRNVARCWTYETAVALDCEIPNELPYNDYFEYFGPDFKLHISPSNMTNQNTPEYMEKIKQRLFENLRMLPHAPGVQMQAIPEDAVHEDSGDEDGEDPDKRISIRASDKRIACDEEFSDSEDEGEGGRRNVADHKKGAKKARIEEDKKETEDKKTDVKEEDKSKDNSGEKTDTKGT",
  "data": [
    {"protein": "B1", "values": [
      {"measurement": "HDAC2 serine phosphorylation (phospho-serine western blot of immunoprecipitated flag-tagged HDAC2)", "result": "HDAC2 phosphorylation seemed to correlate with the level of CK2α binding"}
    ]}
  ]
}
